# In US20240182563A1 (GENOME, published 2024):
# Positions count from the first letter of the chain named. Numbers in names are those of the source.
# T1: human CNTN4-rabbit Fc (human; rabbit, UniProt Q8IWV2 19-1000, limits assumed)
# T1 construct: not shown: rabbit Fc
# T1 sequence (looked up): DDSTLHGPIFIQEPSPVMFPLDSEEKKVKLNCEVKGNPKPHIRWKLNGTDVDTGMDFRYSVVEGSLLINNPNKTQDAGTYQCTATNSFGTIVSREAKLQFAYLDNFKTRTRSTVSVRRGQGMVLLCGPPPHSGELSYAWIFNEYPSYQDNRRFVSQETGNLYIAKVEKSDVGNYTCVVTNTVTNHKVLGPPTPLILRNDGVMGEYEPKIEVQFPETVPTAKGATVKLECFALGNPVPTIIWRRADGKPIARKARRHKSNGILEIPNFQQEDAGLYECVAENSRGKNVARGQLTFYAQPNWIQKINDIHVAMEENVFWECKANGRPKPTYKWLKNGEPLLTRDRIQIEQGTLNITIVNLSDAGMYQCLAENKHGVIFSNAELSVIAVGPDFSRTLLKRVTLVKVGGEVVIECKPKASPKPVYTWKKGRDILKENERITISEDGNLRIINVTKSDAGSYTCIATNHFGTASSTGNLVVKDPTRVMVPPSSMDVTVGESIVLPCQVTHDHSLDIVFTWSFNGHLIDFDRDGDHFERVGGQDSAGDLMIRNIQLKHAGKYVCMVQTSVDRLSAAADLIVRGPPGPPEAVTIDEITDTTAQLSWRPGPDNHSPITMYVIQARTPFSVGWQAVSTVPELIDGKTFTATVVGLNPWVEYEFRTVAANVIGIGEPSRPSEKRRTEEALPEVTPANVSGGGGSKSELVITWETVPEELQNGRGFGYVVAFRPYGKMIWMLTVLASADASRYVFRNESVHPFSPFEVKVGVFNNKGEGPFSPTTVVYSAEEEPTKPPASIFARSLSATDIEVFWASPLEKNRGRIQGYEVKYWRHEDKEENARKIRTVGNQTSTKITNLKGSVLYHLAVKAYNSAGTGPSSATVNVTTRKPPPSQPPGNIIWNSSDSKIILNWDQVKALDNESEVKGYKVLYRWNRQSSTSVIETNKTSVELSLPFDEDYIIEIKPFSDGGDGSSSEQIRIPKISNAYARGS
# T2: mouse CNTN4-rabbit Fc (mouse; rabbit, UniProt Q69Z26 19-1000, limits assumed)
# T2 construct: not shown: rabbit Fc
# T2 sequence (looked up): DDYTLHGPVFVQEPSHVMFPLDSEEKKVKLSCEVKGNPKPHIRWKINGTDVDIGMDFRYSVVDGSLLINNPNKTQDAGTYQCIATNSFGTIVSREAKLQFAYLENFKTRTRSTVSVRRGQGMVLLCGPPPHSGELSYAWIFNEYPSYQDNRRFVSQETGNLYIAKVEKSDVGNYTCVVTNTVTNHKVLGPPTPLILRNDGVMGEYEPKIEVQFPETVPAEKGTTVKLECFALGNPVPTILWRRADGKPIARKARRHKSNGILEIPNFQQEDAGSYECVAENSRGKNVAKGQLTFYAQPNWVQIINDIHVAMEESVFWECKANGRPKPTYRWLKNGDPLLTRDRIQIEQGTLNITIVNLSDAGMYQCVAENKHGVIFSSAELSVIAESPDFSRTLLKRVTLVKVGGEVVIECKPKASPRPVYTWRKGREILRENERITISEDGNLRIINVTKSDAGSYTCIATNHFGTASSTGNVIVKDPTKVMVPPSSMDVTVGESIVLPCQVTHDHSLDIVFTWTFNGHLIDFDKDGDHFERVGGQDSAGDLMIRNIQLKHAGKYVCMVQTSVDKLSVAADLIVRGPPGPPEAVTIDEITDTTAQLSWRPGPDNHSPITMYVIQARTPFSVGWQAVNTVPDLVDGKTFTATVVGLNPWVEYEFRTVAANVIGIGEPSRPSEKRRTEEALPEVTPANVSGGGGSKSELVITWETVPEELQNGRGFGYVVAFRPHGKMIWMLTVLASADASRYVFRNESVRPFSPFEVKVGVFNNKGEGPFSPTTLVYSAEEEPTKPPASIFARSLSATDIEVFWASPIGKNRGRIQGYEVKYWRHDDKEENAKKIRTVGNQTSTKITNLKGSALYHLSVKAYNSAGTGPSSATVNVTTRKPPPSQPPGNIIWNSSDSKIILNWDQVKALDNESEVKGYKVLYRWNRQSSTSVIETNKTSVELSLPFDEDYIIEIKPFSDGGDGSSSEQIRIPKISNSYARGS
# T3: human CNTN4 antigen expressed on the cell membrane of 293FT cells (human, UniProt Q8IWV2 19-1000)
# T3 construct: whole, on cells; also called Human CNTN4 transfected cell
# T3 sequence (looked up): T1 sequence (looked up)
# B1: anti-CNTN4 IgG A13SF74 (antibody, V domains shown)
# VH: AVTLDESGGGLQTPGGALSLVCKASGFTLSSYAMQWVRQAPGKGLEWVAGISKGGGSTAYGAAVKGRATISRDNGQSTVRLQLNNLRAEDTATYFCAKTTDSNCCSSDSIDAWGHGTEVIVSS
# VL: ALTQPSSVSANPGETVKITCSGNSSGCSWYGWFQQKSPGSALVTVIYDNTNRPSNIPSRFSGSRSGSTATLTITGVQAEDEAIYFCGIADSSGAGIFGAGTTLTVL
# notes: human IgG4 (S228P)
# B2: anti-CNTN4 IgG A13SF2 (antibody, V domains shown)
# VH: AVTLDESGGGLQTPGGALSLICKASGFTFSSYGMAWVRQAPGKGLEWVAGITSSGSSAGYGPAVKGRATISRDNGQSTVRLQLNNLRAEDTATYYCAKDGYIYSGADSDSIDAWGHGTEVIVSS
# VL: ALTQPSSVSANLGGTVKITCSGGGGSYGWYRQKSPGSAPVTLIYNNNNRPSDIPSRFSGSTSGSTGTLTITGVQADDEAVYFCGGYDSSAGYAALFGAGTTLTVL
# notes: human IgG4 (S228P)
# B3: anti-CNTN4 IgG A35SF90 (antibody, V domains shown)
# VH: B2 VH with Q12H, I21V
# VL: ALTQPSSVSANLGGTVEITCSGSNNNNYGWYQQKTPGSAPVTLIYNNNQRPSDIPSRFSGSKSGSTGTLTITGVRAEDEAVYYCGGYDSSIYFDIFGAGTTLTVL
# notes: human IgG4 (S228P)
# B4: anti-CNTN4 IgG A35SF75 (antibody, V domains shown)
# VH: B2 VH with Q12H, I21V
# VL: ALTQPSSVSANPGVTVKITCSGGGGSYGWYQQKAPGSAPVTLIYNNTNRPSDIPSRFSGSRSGSTNTLTITGVQAEDEAVYFCGGYDSNTDYVGFGAGTTLTVL
# notes: human IgG4 (S228P)
# B5: anti-CNTN4 IgG A35SF39 (antibody, V domains shown)
# VH: B2 VH with Q12H, I21V
# VL: ALTQPSSVSANLGGTVKITCSGGSGSYGWYQQKSPGSAPVTVIYNNNNRPSDIPSRFSGSTSGSTGTLTITGVRAEDEAVYFCGGYDTDSPIFGAGTTLTVL
# notes: human IgG4 (S228P)
# B6: anti-CNTN4 IgG A13SF8 (antibody, V domains shown)
# VH: B2 VH with Q12H, I21V
# VL: ALTQPSSVSANPGGTVKITCSGSGNYGWYQQKSPGSALVTVIYYNDKRPSDIPSRFSGSTSGSTGTLTITGVQVEDEAVYYCGGYDGYSFASIFGAGTTLTVL
# notes: human IgG4 (S228P)
# B7: anti-CNTN4 IgG A13SF19 (antibody, V domains shown)
# VH: B2 VH with Q12H, I21V, P41S
# VL: ALTQPSSVSANLGGTVEITCSGSSSGNYGWYQQKSPGSAPVTVIYYNDERPSDIPSRFSGSKSGSTGTLTITGVQAEDEAVYYCGGYEGSTYVGIFGAGTTLTVL
# notes: human IgG4 (S228P)
# B8: anti-CNTN4 IgG A35SF5 (antibody, V domains shown)
# VH: B2 VH with Q12H, I21V
# VL: ALTQPSSVSANPGETVEITCSGSSGSNYGWYQQKSPGSAPVTLIYYNDNRPSDIPSRFSGSKSGSTGTLTITGVQVEDEAVYYCGAWESSSNPDIFGAGTTLTVL
# notes: human IgG4 (S228P)
# B9: anti-CNTN4 IgG A13SF7 (antibody, V domains shown)
# VH: B2 VH with Q12H, I21V
# VL: ALTQPSSVSANLGGTVEITCSGGSGSYGWYQQKSPGSAPVTLIYDNTNRPSNIPSRFSGSTSGSTSTLTITGVQADDEAVYFCGSADTNAAYAAIFGAGTTLTVL
# notes: human IgG4 (S228P)
# B10: anti-CNTN4 IgG A13SF20 (antibody, V domains shown)
# VH: B2 VH with Q12H, I21V
# VL: ALTQPSSVSANLGGTVEITCSGGSGSYGWYQQKAPGSAPVTLIYNSDKRPSDIPSRFSGSKSGSTGTLTITGVQAEDEAVYFCGGYDSSAIFGAGTTLTVL
# notes: human IgG4 (S228P)
# B11: anti-CNTN4 IgG A35WB27 (antibody, V domains shown)
# VH: B2 VH with Q12H, I21V
# VL: ALTQPSSVSANLGETVKITCSGGYSGYGWYQQKSPGSAPVTVIYYNDKRPSDIPSRFSGSKSGSTGTLTITGVRAEDEAVYFCGSADSSTGYVAIFGAGTTLTVL
# notes: human IgG4 (S228P)
# B12: anti-CNTN4 IgG A35SF37 (antibody, V domains shown)
# VH: B2 VH with Q12H, I21V
# VL: ALTQPSSVSANLGGTVKITCSGGSNNYGWYQQKSPGSAPVTVIYYNNKRPSDIPSRFSGSKSGSTATLTITGVQAEDEAVYFCGGYDSSSNSDVYGAGTTLTVL
# notes: human IgG4 (S228P)
# B13: anti-CNTN4 IgG A35WB1 (antibody, V domains shown)
# VH: B2 VH with Q12H, I21V
# VL: ALTQPSSVSANPGETVKITCSGGSGSYGWYQQKSPGSAPVTVIYNNDQRPSNIPSRFSGSKSGSTATLTITGVQVEDEAVYFCGGWDSNSGAIFGAGTTLTVL
# notes: human IgG4 (S228P)
# B14: anti-CNTN4 IgG A35SF13 (antibody, V domains shown)
# VH: B2 VH with Q12H, I21V
# VL: ALTQPSSVSANPGETVKITCSGGGGSYGWYQQKSPGSALVTVIYNNDNRPSNIPSRLSGSKSGSTATLTITGVRAEDEAVYFCGSADNNGYIAIFGAGTTLTVL
# notes: human IgG4 (S228P)
# B15: anti-CNTN4 IgG A35SF3 (antibody, V domains shown)
# VH: B2 VH with A17G, I21V
# VL: B10 VL with G23S, L42V, N45D, S46N, D47T, K48N, A90T
# notes: human IgG4 (S228P)
# Molecular target: T1, human CNTN4-rabbit Fc
# Experiment: ELISA, plate coated with antigen-rabbit Fc, anti-human IgG Fc-HRP
# Method: (§1) An ELISA tests were performed on a total of 25 scFv-hCks and a total of 27 IgGs for which the expression was confirmed in Example 1.2. An ELISA plate was coated with 200 ng of antigens (human CNTN4-rabbit Fc or mouse CNTN4-rabbit Fc). 200 ng of a negative control (human antigen-rabbit Fc) for a tagging protein was used. For antibody binding, anti-CNTN4 scFv-hCk was serially diluted from a maximum of 1 μM to 0.001 nM by 1/10×each, and anti-CNTN4 IgG was serially diluted from a maximum of 10 nM to 0.00001 nM by 1/10×each, thereby binding to the antigen. Anti-human kappa-HRP or anti-human IgG Fc-HRP was used as the secondary antibody for antibody detection. Color was developed using ABTS, which is a color developing reagent, and the absorbance at 405 nm was measured.
row,EC50 [nM],Binder
1,0.11,B1
2,0.01,B2
3,0.01,B3
4,0.21,B4
5,0.01,B5
6,0.01,B6
7,0.01,B7
8,0.01,B8
9,0.01,B9
10,0.01,B10
11,0.01,B11
12,0.01,B12
13,0.02,B13
14,0.01,B14
15,0.01,B15

# Molecular target: T2, mouse CNTN4-rabbit Fc
# Experiment: as above
# Method: as §1
row,EC50 [nM],Binder
1,0.12,B1
2,0.01,B2
3,0.01,B3
4,0.2,B4
5,0.01,B5
6,0.01,B6
7,0.01,B7
8,0.01,B8
9,0.01,B9
10,0.01,B10
11,0.01,B11
12,0.01,B12
13,0.01,B13
14,0.02,B14
15,0.01,B15

# Molecular target: T3, human CNTN4 antigen expressed on the …
# Experiment: FACS, 293FT cells transfected with human CNTN4, 40 ug/mL, anti-hFc-PE
row,Shift % [%],Binder
1,84.1,B1
2,83.5,B2
3,82.8,B3
4,84.8,B4
5,80,B5
6,90.4,B6
7,79.6,B7
8,82.6,B8
9,83.2,B9
10,82.2,B10
11,88.2,B11
12,86.6,B12
13,83.9,B13
14,82.1,B14
15,81.9,B15
